Substitutions are numbered along the chain they refer to.
T1: TIGIT on the engineered cell lines of the TIGIT/CD155 Blockade Bioassay (J2201, Promega) (UniProt Q495A1 22-244, limits assumed)
T1 sequence (looked up): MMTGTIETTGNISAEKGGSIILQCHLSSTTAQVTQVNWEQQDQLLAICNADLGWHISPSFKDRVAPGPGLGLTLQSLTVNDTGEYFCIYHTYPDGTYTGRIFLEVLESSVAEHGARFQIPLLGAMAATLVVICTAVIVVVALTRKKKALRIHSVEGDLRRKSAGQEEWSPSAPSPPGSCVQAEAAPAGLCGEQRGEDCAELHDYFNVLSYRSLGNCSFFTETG

T2: Recombinant human TIGIT (human, UniProt Q495A1 22-141, limits assumed)
T2 construct: also called T cell immunoreceptor with Ig and ITIM domains
T2 sequence: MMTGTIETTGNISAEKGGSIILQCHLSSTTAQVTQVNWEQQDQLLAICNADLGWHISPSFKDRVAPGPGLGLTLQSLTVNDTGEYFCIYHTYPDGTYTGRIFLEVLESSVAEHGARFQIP

B1: SCT-Ga001 (antibody, V domains shown)
VH: QVQLQQSGAELVRPGTSVKVSCKASGYAFTNYLIEWVKQRPGQGLEWIGVINPGSGGSKYNEKFKGKTTLTADKSSSTAYMQLSSLTSEDSAVYFCARTGVYGNFLIFDYWGQGTTLTVSS
VL: DIVLTQSPSSLSVAAGEKVTLSCKSSQSLLNSGIQKNYLAWYQQKPGQPPKLLIYGASTRESGVPDRFTGSGSGTDFTLTISSVQAEDLAVYYCQNDHRYPFTFGGGTKLEIK
notes: Murine variable domains
B2: SCT-Ga249 (antibody, V domains shown)
VH: QVQLQQSGGELMKPGASVKISCKATGYTFSNYWIEWVKQRPGHGLEWIGEILPGSGSSYYNEKFKGRATFTADKSSNTAYMQLSSLTSEDSAVYYCARQKYGNFYYFDFWGQGTTLTVSS
VL: AIQMTQTTSSLSASLGDRVTISCSASQGIGNYLNWYQQKPDGTVKLLIYYTSSLHSGVPSRFSGSGSGTDYSLTISDLEPEDIATYYCHQYSKLPYTFGGGTKLEIK
notes: Murine variable domains
B3: SCT-Ga255 (antibody, V domains shown)
VH: EVKLVESGGGLVKPGGSLKLSCAASGFAFSSFDMSWVRQTPEKRLEWVAVISSGGSYTFYPDSVKGRFTISRDNARNTLYLQMSSLRSEDTALYFCTRQDYRYPYIMDYWGQGTSVTVSS
VL: DIQMNQSPSSLSASLGDTITITCHASQNINVWLSWYQQKPGNIPKLLIYKASNLHTGVPSRFSGSGSGAGFTLTISSLQPEDIATYYCQQGQSYPWTFGGGTKLEIK
notes: Murine variable domains
B4: SCT-Ga333 (antibody, V domains shown)
VH: QVQLQQSGAELVRPGTSVKVSCKASGYAFTNYLIEWVKQRPGQGLEWIGVINPGSGGNNYNEKFKGKATLTADKSSSTAYMQLSSLTSDDSAVYFCARRGDKYGSAWFAYWGQGTLVTVSA
VL: DIVMTQSHKFMSTSVGDRVSITCKASQDVSTAVAWYQQKPGQSPKLLIYSASYRYTGVPDRFTGSGSGTDFTFTISSVQAEDLAVYYCQQHYSSPRTFGGGTKLEIK
notes: Murine variable domains
B5: SCT-Ga433 (antibody, V domains shown)
VH: DVKLVESGGGLVKPGGSLKLSCSASGFTFSSYTMSWVRQTPEKRLEWVATISSGGSYTYYPDSVKGRFTISRDNAKNTLYLQMSSLKSEDTAMFYCTRWLLSLYAMDYWGQGTSVTVSS
VL: B3 VL with P44S, L54F, A69T, G70N, S93T, W96F
notes: Murine variable domains
B6: SCT-Ga485 (antibody, V domains shown)
VH: QVQLVQSGAEVKKPGASVKVSCKASGYAFTNYLIEWVKQAPGQGLEWIGVINPGSGGSKYNEKFKGRATITADKSTSTAYMELSSLRSEDTAVYFCARTGVYGNFLIFDYWGQGTTVTVSS
VL: DIVMTQSPDSLAVSLGERATINCKSSQSLLNSGIQKNYLAWYQQKPGQPPKLLIYGASTRESGVPDRFSGSGSGTDFTLTISSLQAEDVAVYYCQNDHRYPFTFGGGTKLEIK
B7: SCT-Ga498 (antibody, V domains shown)
VH: QVQLQQSGAEVKKPGASVKVSCKASGYAFTNYLIEWVKQAPGQGLEWIGVINPGSGGNNYNEKFKGRATITADKSTSTAYMELSSLRSEDTAVYFCARRGDKYGSAWFAYWGQGTTVTVSA
VL: B4 VL with H8Q, K9R, S14T, F73L, S77N, V78M, A80S
B8: SCT-Ga461 (antibody, V domains shown)
VH: EVQLVESGGGLVQPGGSLRLSCAASGFTFSSYTMSWVRQAPGKGLEWVATISSGGSYTYYPDSVKGRFTISRDNAKNTLYLQMNSLRAEDTAVYYCTRWLLSLYAMDYWGQGTLVTVSS
VL: AIQMTQSPSSLSASVGDRVTITCQASQNINVWLSWYQQKPGKAPKLLIYKASTLASGVPSRFSGSGSGTDFTLTISSLQPDDFATYYCQQGQTYPFTFGGGTKVEIK
B9: SCT-Ga487 (antibody, V domains shown)
VH: QVQLQQPGAELVKPGASVKMSCKATGYTFSNYWIEWVKQTPGRGLEWIGEILPGSGSSYYNQKFKGKATLTADKSSSTAYMQLSSLTSEDSAVYYCARQKYGNFYYFDFWGAGTTVTVSA
VL: AIQMTQSPSSLSASVGDRVTITCRASQGIGNYLNWYQQKPGKAPKLLIYYTSSLHSGVPSRFSGSGSGTDYTFTISSLQPEDIATYYCHQYSKLPYTFGQGTKVEIK
B10: SCT-Ga495 (antibody, V domains shown)
VH: B3 VH with K13Q, K19R, T40A, E42G, R44G, A75S, R76K, S84N, S88A, S115L
VL: B8 VL with T93S, F96W
B11: SCT-Ga496 (antibody, V domains shown)
VH: B3 VH with K13Q, K19R, T40A, E42G, R44G, A75S, R76K, S84N, S88A, S115L
VL: B8 VL with A1D, Q24H, T93S, F96W

biological target: TIGIT on the engineered cell lines of the TIGIT/CD155 Blockade Bioassay (J2201, Promega) (UniProt Q495A1); assay: cell-based or functional assay

For MK-7684 (antibody), the Blockade EC50 was 24.8 nM.

biological target: T1, TIGIT on the engineered cell lines of …; assay: cell-based or functional assay

In order of falling “Blockade EC50” value:
1. B4  42.2 nM
2. B3  33.4 nM
3. B2  28.1 nM
4. B1  26.6 nM
5. B5  25.2 nM

biological target: T2, Recombinant human TIGIT; assay: ELISA, recombinant human TIGIT coated on plate, serially diluted antibody
Protocol: The recombinantly expressed antibodies were used to assess binding activity to TIGIT by conventional ELISA according to the known art. Recombinant human TIGIT was coated onto ELISA plates to detect binding at serially diluted concentrations of the anti-TIGIT antibody preparations (FIG. 1). Anti-TIGIT antibodies' blockade activity was assessed using engineered cell lines, kit reagents (TIGIT/CD155 Blockade Bioassay, J2201, Promega, Madison, Wis.), and a luminometer (Promega, Madison, Wis.) and the results were used to compare against benchmark antibodies with known blockade activity (FIG. 2). Similarly, these antibodies were assessed for their ability to synergize with an anti-PD-1 antibody using a PD-1+TIGIT combination bioassay (Cat. No. J2211 Promega, Madison, Wis.).

In order of falling EC50:
1. B1  5.03 nM
2. B8  4.55 nM
3. B9  1.96 nM
4. B2  1.22 nM
5. B5  1.1 nM
6. B4  1.08 nM
7. B3  0.96 nM
8. B7  0.82 nM
9. B6  0.79 nM
10. B10  0.69 nM
11. B11  0.67 nM

From patent US20220332816A1 (SINGLE CELL TECHNOLOGY, published 2022)
